Experimental data taken from the Human Domainome abundance scans (Beltran et al. 2025).
± gives the uncertainty stated by the source.

B1: WW domain-binding protein 4, residues 8 to 43; numbered along this chain, O75554 (parent)
chain: QPKKFCDYCKCWIADNRPSVEFHERGKNHKENVAKR

Variants of: B1
Experiment: abundance fitness (aPCA) (normalised: wild type 0, dead -1); higher = more abundant; growth selection in yeast, the domain comes from the species named
Conditions: Homo sapiens

| Variant | abundance fitness |
| --- | --- |
| APKKFCDYCKCWIADNRPSVEFHERGKNHKENVAKR [Q1A] | -0.931 ± 0.23 |
| KPKKFCDYCKCWIADNRPSVEFHERGKNHKENVAKR [Q1K] | -0.879 ± 0.15 |
| QPKKFCDYCKCWIADNRPSVEFHEREKNHKENVAKR [G26E] | 0.153 ± 0.1 |
| QPKKFCDYCKCWIADNRPSVEFHERDKNHKENVAKR [G26D] | 0.015 ± 0.13 |
| QPKKFCDYCKCWIADNRPSVEFHERWKNHKENVAKR [G26W] | -0.277 ± 0.068 |
| QPKKFCDYCKCWIADNRPSVEFHERGKNHKENVAKG [R36G] | 0.16 ± 0.065 |
| QPKKFCDYCKCWIADNRPSVEFHERGKPHKENVAKR [N28P] | -0.047 ± 0.11 |
| QPKKFCDYCKCMIADNRPSVEFHERGKNHKENVAKR [W12M] | 0.075 ± 0.11 |
| QPKKFCDYCKCWIADNRSSVEFHERGKNHKENVAKR [P18S] | -0.192 ± 0.086 |
| QPKKFCDYCKCWIADNRPSVEFHERGKNHKENVAAR [K35A] | 0.216 ± 0.093 |
| QPKKFCDYCKCWIADNRPSVEFHERGKNHKENVAWR [K35W] | 0.017 ± 0.12 |
| QPKKFCDYCKCWIADNRPSVEFHERGKNHKENVVKR [A34V] | -0.088 ± 0.078 |
| QPKKFCDYCKCWIADNRPSVEFHERGKNHKENVSKR [A34S] | 0.055 ± 0.14 |
| QPSKFCDYCKCWIADNRPSVEFHERGKNHKENVAKR [K3S] | -0.102 ± 0.07 |
| QPKKFCDYCKCWIADNRPSVEFLERGKNHKENVAKR [H23L] | -0.838 ± 0.082 |
| QPKKFCDYCKCWIADNRPSVEFWERGKNHKENVAKR [H23W] | -0.601 ± 0.12 |
| QPKKFCDYQKCWIADNRPSVEFHERGKNHKENVAKR [C9Q] | -0.701 ± 0.12 |
| QPKKFCDYCKCWIADNRPSVECHERGKNHKENVAKR [F22C] | 0.089 ± 0.1 |
| QPKKFCDYCKCWIADNRPSVEDHERGKNHKENVAKR [F22D] | 0.132 ± 0.17 |

| Variant | abundance fitness |
| --- | --- |
| QPKKFCDYCKCWSADNRPSVEFHERGKNHKENVAKR [I13S] | -0.473 ± 0.085 |
| QPKKFCDYCKCWIADQRPSVEFHERGKNHKENVAKR [N16Q] | -0.073 ± 0.094 |
| QPKKFCDYCKCWIADDRPSVEFHERGKNHKENVAKR [N16D] | -0.233 ± 0.11 |
| QPKKFCDYCKCWIADIRPSVEFHERGKNHKENVAKR [N16I] | 0.321 ± 0.19 |
| QPKKFCDYCKCWIADPRPSVEFHERGKNHKENVAKR [N16P] | 0.018 ± 0.078 |
| QPKKFCDYCKCWIADTRPSVEFHERGKNHKENVAKR [N16T] | 0.185 ± 0.067 |
| QPKKFCDYCKCWIADHRPSVEFHERGKNHKENVAKR [N16H] | -0.105 ± 0.091 |
| QPKKFCDYCKCWIADNDPSVEFHERGKNHKENVAKR [R17D] | 0.068 ± 0.096 |
| QPKKFCDYCKCWIADNTPSVEFHERGKNHKENVAKR [R17T] | -0.03 ± 0.11 |
| QPKKFCDYCKCWIADNRPMVEFHERGKNHKENVAKR [S19M] | -0.07 ± 0.1 |
| QPKKFCDYCKCWIADNRPSVNFHERGKNHKENVAKR [E21N] | -0.312 ± 0.11 |
| QPKKFCDYCKCWIADNRPSVIFHERGKNHKENVAKR [E21I] | -0.71 ± 0.36 |
| QPKKFCDYCKCWIADNRPSVPFHERGKNHKENVAKR [E21P] | -0.467 ± 0.096 |
| QPKKFCDYCKCWIADNRPSVKFHERGKNHKENVAKR [E21K] | 0.007 ± 0.07 |
| QPKSFCDYCKCWIADNRPSVEFHERGKNHKENVAKR [K4S] | -0.212 ± 0.092 |
| QPKAFCDYCKCWIADNRPSVEFHERGKNHKENVAKR [K4A] | -0.291 ± 0.063 |
| QPKKFCDYCKCWIADNRPSREFHERGKNHKENVAKR [V20R] | -0.226 ± 0.068 |
| QPKKFCDYCKCWIADNRPSNEFHERGKNHKENVAKR [V20N] | -0.033 ± 0.17 |
| QPKKFCDYCKCWIADNRPSFEFHERGKNHKENVAKR [V20F] | -0.442 ± 0.22 |

| Variant | abundance fitness |
| --- | --- |
| QPKKFCDYCKCWIADNRPSAEFHERGKNHKENVAKR [V20A] | 0.05 ± 0.069 |
| QPKKFCDYCKCWIADNRPSHEFHERGKNHKENVAKR [V20H] | -0.031 ± 0.15 |
| QPKKFCDYCKWWIADNRPSVEFHERGKNHKENVAKR [C11W] | -0.589 ± 0.12 |
| QPKKFCDYCKVWIADNRPSVEFHERGKNHKENVAKR [C11V] | 0.066 ± 0.068 |
| QPKKFCDYCKPWIADNRPSVEFHERGKNHKENVAKR [C11P] | -0.475 ± 0.12 |
| QPKKWCDYCKCWIADNRPSVEFHERGKNHKENVAKR [F5W] | -1.06 ± 0.087 |
| QPKKDCDYCKCWIADNRPSVEFHERGKNHKENVAKR [F5D] | -0.533 ± 0.13 |
| QPKKFCDYCKCWIADNRPSVEFHERGKNHKGNVAKR [E31G] | -0.153 ± 0.071 |
| QPKKFCDYCKCWIADNRPSVEFHERGKNHKTNVAKR [E31T] | -0.259 ± 0.12 |
| QPKKFCDYCKCWIADNRPSVEFHERGKNAKENVAKR [H29A] | -0.309 ± 0.096 |
| QPKKFCDYCKCWIAGNRPSVEFHERGKNHKENVAKR [D15G] | -0.09 ± 0.055 |
| QPKKFCDYCKCWIANNRPSVEFHERGKNHKENVAKR [D15N] | -0.249 ± 0.29 |
| QPKKFCDYCKCWIASNRPSVEFHERGKNHKENVAKR [D15S] | -0.236 ± 0.074 |
| QPKKFCDYCKCWIARNRPSVEFHERGKNHKENVAKR [D15R] | -0.328 ± 0.068 |
| QPKKFCDYCKCWIVDNRPSVEFHERGKNHKENVAKR [A14V] | -0.39 ± 0.077 |
| QPKKFCDYCKCWIADNRPSVEFHECGKNHKENVAKR [R25C] | -0.133 ± 0.097 |
| QPKKFCDYCKCWIADNRPSVEFHSRGKNHKENVAKR [E24S] | -0.232 ± 0.078 |
| QPKKFCDYCKCWIADNRPSVEFHTRGKNHKENVAKR [E24T] | -0.549 ± 0.21 |
| QPKKFCDYCKCWIADNRPSVEFHERGKNHKENNAKR [V33N] | -0.572 ± 0.24 |
